Where only a bound is given, the exact number is not on record here.

First the molecules themselves.
B1: Ic_S2_P5E.1_K5.1_C5.1_H5.1_A5.1_[T5G]_[A7C]_F5.1_[T9G]_[A10T]_T5.1 (ssRNA)
RNA: UUUGAUUAAUAUGAUAUCGUUCUUUCUUGUAGUCUGUUUCUUUCUCGAUAUCAUAUUAAUCUUU
B2: Ic_S2_P5E.1_K5.1_C5.1_H5.1_A5.1_[T6A]_[A7C]_F5.1_[T9A]_[A10G]_T5.1 (ssRNA)
RNA: UUUGAUUAAUAUGAUAUCGUUCUUUCUUGUAUACUAGUUCUUUCUCGAUAUCAUAUUAAUCUUU
B3: Ic_S2_P5E.1_K5.1_C5.1_H5.1_A5.1_[T5C]_[T6A]_[A7C]_F5.1_[T9C]_[A10C]_T5.1 (ssRNA)
RNA: UUUGAUUAAUAUGAUAUCGUUCUUUCUUGUACACUCCUUCUUUCUCGAUAUCAUAUUAAUCUUU
B4: Ic_S2_P5E.1_K5.1_C5.1_H5.1_A5.1_[T5A]_[A7C]_F5.1_[T9C]_[A10T]_T5.1 (ssRNA)
RNA: UUUGAUUAAUAUGAUAUCGUUCUUUCUUGUAAUCUCUUUCUUUCUCGAUAUCAUAUUAAUCUUU
B5: Ic_S2_P5E.1_K5.1_C5.1_H5.1_A5.1_[T5C]_[T6C]_F5.1_[T8G]_[T9C]_[A10T]_T5.1 (ssRNA)
RNA: UUUGAUUAAUAUGAUAUCGUUCUUUCUUGUACCAGCUUUCUUUCUCGAUAUCAUAUUAAUCUUU
B6: Ic_S2_P5E.1_K5.1_C5.1_H5.1_A5.1_[T5C]_[T6C]_[A7G]_F5.1_[T8G]_[A10C]_T5.1 (ssRNA)
RNA: UUUGAUUAAUAUGAUAUCGUUCUUUCUUGUACCGGUCUUCUUUCUCGAUAUCAUAUUAAUCUUU
B7: Ic_S2_P5E.1_K5.1_C5.1_H5.1_A5.1_[T6C]_[A7G]_F5.1_[T9A]_[A10C]_T5.1 (ssRNA)
RNA: UUUGAUUAAUAUGAUAUCGUUCUUUCUUGUAUCGUACUUCUUUCUCGAUAUCAUAUUAAUCUUU
B8: Ic_S2_P5E.1_K5.1_C5.1_H5.1_A5.1_[T5C]_[T6C]_[A7T]_F5.1_[T9G]_[A10G]_T5.1 (ssRNA)
RNA: UUUGAUUAAUAUGAUAUCGUUCUUUCUUGUACCUUGGUUCUUUCUCGAUAUCAUAUUAAUCUUU
B9: Ic_S2_P5E.1_K5.1_C5.1_H5.1_A5.1_[T5A]_[A7G]_F5.1_[T8G]_T5.1 (ssRNA)
RNA: UUUGAUUAAUAUGAUAUCGUUCUUUCUUGUAAUGGUAUUCUUUCUCGAUAUCAUAUUAAUCUUU
B10: Ic_S2_P5E.1_K5.1_C5.1_H5.1_A5.1_[T5C]_[T6G]_[A7C]_F5.1_[T8C]_[T9C]_[A10C]_T5.1 (ssRNA)
RNA: UUUGAUUAAUAUGAUAUCGUUCUUUCUUGUACGCCCCUUCUUUCUCGAUAUCAUAUUAAUCUUU
B11: Ic_S2_P5E.1_K5.1_C5.1_H5.1_A5.1_F5.1_[T8A]_[T9C]_[A10T]_T5.1 (ssRNA)
RNA: UUUGAUUAAUAUGAUAUCGUUCUUUCUUGUAUUAACUUUCUUUCUCGAUAUCAUAUUAAUCUUU
B12: Ic_S2_P5E.1_K5.1_C5.1_H5.1_A5.1_[T5A]_[T6C]_[A7C]_F5.1_[T9C]_[A10G]_T5.1 (ssRNA)
RNA: UUUGAUUAAUAUGAUAUCGUUCUUUCUUGUAACCUCGUUCUUUCUCGAUAUCAUAUUAAUCUUU
B13: Ic_S2_P5E.1_K5.1_C5.1_H5.1_A5.1_[T5C]_[T6A]_F5.1_[T8A]_[T9A]_[A10T]_T5.1 (ssRNA)
RNA: UUUGAUUAAUAUGAUAUCGUUCUUUCUUGUACAAAAUUUCUUUCUCGAUAUCAUAUUAAUCUUU
B14: Ic_S2_P5E.1_K5.1_C5.1_H5.1_A5.1_[T5A]_[T6C]_[A7T]_F5.1_[T8G]_[T9C]_[A10T]_T5.1 (ssRNA)
RNA: UUUGAUUAAUAUGAUAUCGUUCUUUCUUGUAACUGCUUUCUUUCUCGAUAUCAUAUUAAUCUUU
B15: Ic_S2_P5E.1_K5.1_C5.1_H5.1_A5.1_[A7C]_F5.1_[T8G]_[T9G]_[A10T]_T5.1 (ssRNA)
RNA: UUUGAUUAAUAUGAUAUCGUUCUUUCUUGUAUUCGGUUUCUUUCUCGAUAUCAUAUUAAUCUUU
B16: Ic_S2_P5E.1_K5.1_C5.1_H5.1_A5.1_[T5C]_[T6C]_F5.1_[T9C]_[A10T]_T5.1 (ssRNA)
RNA: UUUGAUUAAUAUGAUAUCGUUCUUUCUUGUACCAUCUUUCUUUCUCGAUAUCAUAUUAAUCUUU
B17: Ic_S2_P5E.1_K5.1_C5.1_H5.1_A5.1_[T5C]_[T6C]_F5.1_[T8G]_[A10C]_T5.1 (ssRNA)
RNA: UUUGAUUAAUAUGAUAUCGUUCUUUCUUGUACCAGUCUUCUUUCUCGAUAUCAUAUUAAUCUUU
B18: Ic_S2_P5E.1_K5.1_C5.1_H5.1_A5.1_[T6A]_[A7G]_F5.1_[T8C]_[T9C]_[A10T]_T5.1 (ssRNA)
RNA: UUUGAUUAAUAUGAUAUCGUUCUUUCUUGUAUAGCCUUUCUUUCUCGAUAUCAUAUUAAUCUUU
B19: Ic_S2_P5E.1_K5.1_C5.1_H5.1_A5.1_[T5G]_[A7C]_F5.1_[T9A]_T5.1 (ssRNA)
RNA: UUUGAUUAAUAUGAUAUCGUUCUUUCUUGUAGUCUAAUUCUUUCUCGAUAUCAUAUUAAUCUUU
B20: Ic_S2_P5E.1_K5.1_C5.1_H5.1_A5.1_[T6G]_[A7T]_F5.1_[T9C]_[A10C]_T5.1 (ssRNA)
RNA: UUUGAUUAAUAUGAUAUCGUUCUUUCUUGUAUGUUCCUUCUUUCUCGAUAUCAUAUUAAUCUUU
B21: Ic_S2_P5E.1_K5.1_C5.1_H5.1_A5.1_[T5C]_[T6A]_F5.1_[T9A]_T5.1 (ssRNA)
RNA: UUUGAUUAAUAUGAUAUCGUUCUUUCUUGUACAAUAAUUCUUUCUCGAUAUCAUAUUAAUCUUU
B22: Ic_S2_P5E.1_K5.1_C5.1_H5.1_A5.1_[T6G]_[A7T]_F5.1_[T8A]_[T9C]_[A10T]_T5.1 (ssRNA)
RNA: UUUGAUUAAUAUGAUAUCGUUCUUUCUUGUAUGUACUUUCUUUCUCGAUAUCAUAUUAAUCUUU
B23: Ic_S2_P5E.1_K5.1_C5.1_H5.1_A5.1_[T5G]_[T6C]_[A7T]_F5.1_[T8A]_[A10T]_T5.1 (ssRNA)
RNA: UUUGAUUAAUAUGAUAUCGUUCUUUCUUGUAGCUAUUUUCUUUCUCGAUAUCAUAUUAAUCUUU
B24: Ic_S2_P5E.1_K5.1_C5.1_H5.1_A5.1_[T5C]_[T6C]_[A7C]_F5.1_[T8G]_[T9C]_[A10C]_T5.1 (ssRNA)
RNA: UUUGAUUAAUAUGAUAUCGUUCUUUCUUGUACCCGCCUUCUUUCUCGAUAUCAUAUUAAUCUUU
B25: Ic_S2_P5E.1_K5.1_C5.1_H5.1_A5.1_[T5C]_[T6C]_F5.1_[A10T]_T5.1 (ssRNA)
RNA: UUUGAUUAAUAUGAUAUCGUUCUUUCUUGUACCAUUUUUCUUUCUCGAUAUCAUAUUAAUCUUU
B26: Ic_S2_P5E.1_K5.1_C5.1_H5.1_A5.1_[T5G]_[A7T]_F5.1_[T8G]_[T9C]_[A10T]_T5.1 (ssRNA)
RNA: UUUGAUUAAUAUGAUAUCGUUCUUUCUUGUAGUUGCUUUCUUUCUCGAUAUCAUAUUAAUCUUU
B27: Ic_S2_P5E.1_K5.1_C5.1_H5.1_A5.1_[T5G]_[T6C]_F5.1_[T9C]_T5.1 (ssRNA)
RNA: UUUGAUUAAUAUGAUAUCGUUCUUUCUUGUAGCAUCAUUCUUUCUCGAUAUCAUAUUAAUCUUU
B28: Ic_S2_P5E.1_K5.1_C5.1_H5.1_A5.1_[T5A]_[T6C]_[A7C]_F5.1_[T8C]_[T9A]_T5.1 (ssRNA)
RNA: UUUGAUUAAUAUGAUAUCGUUCUUUCUUGUAACCCAAUUCUUUCUCGAUAUCAUAUUAAUCUUU
B29: Ic_S2_P5E.1_K5.1_C5.1_H5.1_A5.1_[T5A]_[T6A]_[A7T]_F5.1_[A10T]_T5.1 (ssRNA)
RNA: UUUGAUUAAUAUGAUAUCGUUCUUUCUUGUAAAUUUUUUCUUUCUCGAUAUCAUAUUAAUCUUU
B30: Ic_S2_P5E.1_K5.1_C5.1_H5.1_A5.1_[T5A]_[T6A]_[A7T]_F5.1_[T8A]_[T9A]_[A10C]_T5.1 (ssRNA)
RNA: UUUGAUUAAUAUGAUAUCGUUCUUUCUUGUAAAUAACUUCUUUCUCGAUAUCAUAUUAAUCUUU
B31: Ic_S2_P5E.1_K5.1_C5.1_H5.1_A5.1_[T5C]_[T6C]_F5.1_[T8C]_[T9C]_[A10C]_T5.1 (ssRNA)
RNA: UUUGAUUAAUAUGAUAUCGUUCUUUCUUGUACCACCCUUCUUUCUCGAUAUCAUAUUAAUCUUU

This data set deals with T1, PUF4 RNA-binding domain (Saccharomyces cerevisiae, UniProt P25339 537-888).
T1 sequence: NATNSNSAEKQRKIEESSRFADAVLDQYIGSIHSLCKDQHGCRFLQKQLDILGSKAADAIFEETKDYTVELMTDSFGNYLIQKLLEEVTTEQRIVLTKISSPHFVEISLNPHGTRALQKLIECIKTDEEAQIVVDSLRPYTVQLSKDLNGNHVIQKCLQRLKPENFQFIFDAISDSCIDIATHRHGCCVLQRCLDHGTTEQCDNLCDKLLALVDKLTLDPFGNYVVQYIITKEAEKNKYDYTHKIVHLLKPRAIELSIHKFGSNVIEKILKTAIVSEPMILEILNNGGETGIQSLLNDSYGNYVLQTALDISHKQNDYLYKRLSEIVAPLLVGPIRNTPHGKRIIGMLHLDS
The data set can be described thus: Mg; RNA-MaP; 20 mM Na-HEPES pH 7.4, 30 mM KOAc, 0.75 mM MgCl2, 0.1% Tween-20, 5% glycerol, 0.1 mg/mL BSA, 2 mM DTT; 25 C; 0.0125-409.6 nM protein. The settings on record: tags: N-His6-TEV cleaved; C-SNAP kept, Cy3B-labelled; label: tethered on chip by stalled RNA polymerase.
Broadly, the Kd is the free concentration of one partner at which half of the binding sites on the other are occupied at equilibrium, for simple one-to-one binding. The low end stands for a tighter complex, the high end for a looser complex. As for UCUCUUGGUAUAUUGUCUCUU (ssRNA) [Ib_S1_P4E.1_K4.1_C4.1_H4.1_[T1G]_A4.1_F4.1_[A9G]_T4.1], the equilibrium dissociation constant (Kd) came out at 690 nM.

In the case of B1, binding was put at a Kd of 60.9 nM. Against the preceding molecule, the Kd is about 11-fold lower.

B2: the Kd was 1.41 nM.

In turn, B3 came in with a Kd of 5.44 nM. This Kd is about 3.9-fold higher than that of the molecule before.

As for B4, the affinity, expressed as Kd, was 36.5 nM.

B5 came in with a Kd of 496 nM. Compared with the last molecule, the Kd is about 14-fold higher.

In turn, B6 came in with a Kd greater than 2300 nM.

B7 yielded a Kd of 28 nM.

B8 came in with a Kd of 210 nM.

As for B9, the dissociation constant Kd came out at 48.9 nM. Compared with the last molecule, the Kd is about 4.3-fold lower.

Molecule B10 displayed a Kd of 140 nM.

The molecule B11 had a dissociation constant (Kd) of 558 nM. Compared with the last molecule, the Kd is about 4-fold higher.

As to B12, the Kd is 563 nM.

Molecule B13 gave a Kd of 8.8 nM.

In the case of B14, the Kd turned out to be 189 nM.

For the molecule B15, the Kd is 475 nM. This Kd is about 2.5-fold higher than that of the molecule before.

On to B16, for which the affinity, expressed as Kd, was 5.17 nM. Against the preceding molecule, the Kd is about 92-fold lower.

The molecule B17 had a Kd of 192 nM.

In turn, B18 returned a Kd of 61.4 nM.

Consider B19, for which the Kd was 6.4 nM.

B20 displayed a Kd of 11.9 nM.

The molecule B21 registered a Kd of 0.983 nM.

B22 returned a dissociation constant (Kd) of 26.3 nM. This Kd lies about 27-fold higher than the previous one.

For the molecule B23, the Kd came to 43.1 nM.

On to B24, for which the equilibrium dissociation constant (Kd) was 1000 nM.

As to B25, the affinity, expressed as Kd, was 2.17 nM. Against the preceding molecule, the Kd is about 460-fold lower.

On to B26, for which the Kd worked out at 436 nM.

The molecule B27 had a Kd of 87.8 nM.

As to B28, the Kd was greater than 2300 nM.

As for B29, the Kd was determined as 17.4 nM.

Regarding B30, the Kd was 30.3 nM.

Consider B31, for which the equilibrium dissociation constant (Kd) turned out to be 347 nM.

Take UCUCUUUGUUUAUAAUCUCUU (ssRNA) [Ib_S1_P4E.1_K4.1_C4.1_H4.1_[A4T]_A4.1_F4.1_[T8A]_T4.1]: the Kd was 495 nM.

On to UCUCUUUGUCUAUAAUCUCUU (ssRNA) [Ib_S1_P4E.1_K4.1_C4.1_H4.1_[A4C]_A4.1_F4.1_[T8A]_T4.1], for which binding was characterised by a dissociation constant (Kd) of 1620 nM.
